The values that follow come from publication PMC5690283.

The target of the test is E-Syt2 C2B domain (within the E-syt2 C2AB construct, 343-646, C611S) (human). Briefly: single-molecule force spectroscopy (optical tweezers); the two C2 domains stand on one chain (C2AB); N-terminus held by biotin-streptavidin on a bilayer-coated silica bead or a streptavidin-coated bead, C-terminus on a DNA handle to a polystyrene bead; pulled at 10 nm/s or held at constant trap separation; 25 mM HEPES pH 7.4, 200 mM NaCl, 100 uM Ca2+, room temperature (~23 C).

The substance “E-Syt2 C2A domain (within the E-syt2 C2AB construct, 343-646, C611S) (domain or fragment)” came in with a force at which the two domains dissociate of 8 to 13 pN; a force of reversible dissociation and re-association of 11 pN.
